± gives the uncertainty stated by the source.
Assay: self-splicing fitness, log relative to wild type (ln ratio); higher = more splicing; Tetrahymena group I intron in knt gene, E. coli kanamycin selection, DiMSum; sequences stand for … in CUCUCU…GGAGGGAAAAGUUAUCAGGCAUGCACCUGGUAGCUAGUCUUUAAACCAAUAGAUUGCAUCGGUUUAAAAGGCAAGACCGUCAAAUUGCGGGAAAGGGGUCAACAGCCGUUCAGUACCAAGUCUCAGGGGAAACUUUGAGAUGGCCUUGCAAAGGGUAUGGUAAUAAGCUGACGGACAUGGUCCUAACCACGCAGCCAAGUCCUAAGUCAACAGAUCUUCUGUUGAUAUGGAUGCAGUUCACAGACUAAAUGUCGGUCGGGGAAGAUGUAUUCUUCUCAUAAGAUAUAGUCGGACCUCUCCUUAAUGGGAGCUAGCGGAUGAAGUGAUGCAACACUGGAGCCGCUGGGAACUAAUUUGUAUGCGAAAGUAUAUUGAUUAGUUUUGGAGUACUCGUGGUCG
Procedure, shortened: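 A randomised library covering all eight P1ex-region intron nucleotides was built with the intron in the knt kanamycin-resistance gene on pET-22b(+) and held in E. coli BL21(DE3). Cells were grown overnight at 37°C or 30°C on LB agar, with or without 25 μg/mL kanamycin, plus 100 μg/mL carbenicillin, 50 μM IPTG and 0.2% rhamnose, and pooled colonies were amplicon-sequenced on an Illumina HiSeq 2500. DiMSum fitness is the error-weighted combination of wild-type-normalised replicate fold changes, kanamycin versus none.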

Sequence | self-splicing fitness (ln) (30 °C) | self-splicing fitness (ln) (37 °C)
UAUCAGCAAUAUUACGUGCU | -3.64 ± 0.21 | -2.1 ± 0.16
UGAAAGCAAUAUUACGAGGU | -4.07 ± 0.31 | -1.72 ± 0.23
GAUAAGCAAUAUUACGGGGC | -2.96 ± 0.25 | -1.62 ± 0.18
GGAGAGCAAUAUUACGAACA | – | -1.93 ± 0.22
UCUCAGCAAUAUUACGAGGG | -2.87 ± 0.11 | -1.31 ± 0.12
CUAAAGCAAUAUUACGACGG | -0.113 ± 0.051 | 0.466 ± 0.082
CGCCAGCAAUAUUACGUGAC | -3.64 ± 0.32 | -2.96 ± 0.33
CACUAGCAAUAUUACGGAUG | -2.42 ± 0.083 | -1.39 ± 0.079
AGUCAGCAAUAUUACGACGC | 0.144 ± 0.1 | 0.499 ± 0.13
UAGCAGCAAUAUUACGAUGU | -3.82 ± 0.21 | -2.5 ± 0.2
GGACAGCAAUAUUACGAACG | -0.686 ± 0.08 | -0.333 ± 0.1
ACGCAGCAAUAUUACGCCCC | -0.51 ± 0.21 | -0.189 ± 0.28
AGUUAGCAAUAUUACGCUUU | -2.56 ± 0.13 | -1.09 ± 0.13
GUAAAGCAAUAUUACGAUGC | -0.312 ± 0.11 | -0.105 ± 0.11
AAUAAGCAAUAUUACGCUAG | -1.79 ± 0.18 | -1.17 ± 0.17
AGUCAGCAAUAUUACGAGGA | -2.97 ± 0.2 | -1.73 ± 0.16
ACGGAGCAAUAUUACGCGUG | -2.24 ± 0.12 | -0.943 ± 0.11
GUUUAGCAAUAUUACGAUAG | -3.5 ± 0.32 | -1.88 ± 0.31
GUCAAGCAAUAUUACGUCGA | -3.6 ± 0.42 | -4.19 ± 0.46
ACAGAGCAAUAUUACGUUUA | -3.01 ± 0.15 | -3.24 ± 0.23
GUAAAGCAAUAUUACGUCCC | -1.07 ± 0.19 | 0.449 ± 0.26
UAGGAGCAAUAUUACGUAGC | -3.98 ± 0.24 | -2.74 ± 0.21
CUUCAGCAAUAUUACGUCAC | – | -1.41 ± 0.19
GGGGAGCAAUAUUACGUGGG | -2.75 ± 0.32 | –
UCUGAGCAAUAUUACGGCCG | -2.7 ± 0.37 | –
UAAGAGCAAUAUUACGAGGU | -3.48 ± 0.23 | -2.56 ± 0.27

Sequence | self-splicing fitness (ln) (30 °C) | self-splicing fitness (ln) (37 °C)
AUUUAGCAAUAUUACGUAAC | -2.52 ± 0.18 | -2.58 ± 0.2
ACUAAGCAAUAUUACGUGCG | -0.891 ± 0.086 | -0.294 ± 0.098
CCCAAGCAAUAUUACGUUAA | -3.68 ± 0.17 | -2.62 ± 0.14
UAUGAGCAAUAUUACGAUCU | -1.76 ± 0.23 | -2 ± 0.31
GCCCAGCAAUAUUACGCAAA | -2.41 ± 0.14 | -1.3 ± 0.11
UAUAAGCAAUAUUACGUAAC | -3.16 ± 0.27 | 0.142 ± 0.22
GUGGAGCAAUAUUACGCGGU | -1.16 ± 0.3 | -0.344 ± 0.29
AAUGAGCAAUAUUACGUCGU | -2.77 ± 0.082 | -1.18 ± 0.086
UUUCAGCAAUAUUACGAUGC | -3.68 ± 0.28 | -2.01 ± 0.29
CCGGAGCAAUAUUACGAGAC | -2.99 ± 0.38 | –
GUAUAGCAAUAUUACGCUGA | -1.91 ± 0.2 | -1.81 ± 0.17
UUUGAGCAAUAUUACGCUAA | -1.08 ± 0.41 | –
UCACAGCAAUAUUACGAGCC | -2.07 ± 0.22 | -2.3 ± 0.5
AAGCAGCAAUAUUACGCGAG | -0.949 ± 0.095 | -0.986 ± 0.11
UAUAAGCAAUAUUACGGCGA | -0.0284 ± 0.1 | -0.427 ± 0.11
GUUCAGCAAUAUUACGAAUA | -1.01 ± 0.12 | -0.181 ± 0.1
ACCAAGCAAUAUUACGUCUA | -1.29 ± 0.11 | -0.982 ± 0.1
CUCAAGCAAUAUUACGGCGA | -2.71 ± 0.2 | -1.87 ± 0.23
AGCCAGCAAUAUUACGUGGA | -3.81 ± 0.18 | -2.65 ± 0.14
CUUAAGCAAUAUUACGGGGC | -3.68 ± 0.2 | -2.63 ± 0.21
UUCCAGCAAUAUUACGCUCC | -2.51 ± 0.24 | -0.988 ± 0.22
GUGAAGCAAUAUUACGACUG | -1.37 ± 0.09 | -0.924 ± 0.14
CCUAAGCAAUAUUACGUAAU | -2.38 ± 0.18 | -0.984 ± 0.29
GAGAAGCAAUAUUACGGAAU | -3.69 ± 0.25 | -1.55 ± 0.2
CUAGAGCAAUAUUACGGCUA | -3.41 ± 0.31 | -1.17 ± 0.21
GGUCAGCAAUAUUACGUCUA | -0.0881 ± 0.073 | 0.0699 ± 0.078

Sequence | self-splicing fitness (ln) (30 °C) | self-splicing fitness (ln) (37 °C)
AAUAAGCAAUAUUACGACGU | 0.233 ± 0.057 | 0.618 ± 0.072
GGGAAGCAAUAUUACGUUGG | -3.77 ± 0.3 | -1.1 ± 0.24
UGCAAGCAAUAUUACGUCAC | -2.88 ± 0.47 | -2.27 ± 0.24
AUACAGCAAUAUUACGAAAU | -1.44 ± 0.087 | -0.906 ± 0.11
UACGAGCAAUAUUACGGAGC | -2.66 ± 0.3 | -2.8 ± 0.32
GAGCAGCAAUAUUACGGAUG | -3.85 ± 0.25 | -1.73 ± 0.15
UUAUAGCAAUAUUACGCAGC | -3.44 ± 0.31 | -2.49 ± 0.45
UGAAAGCAAUAUUACGAUAA | -0.879 ± 0.11 | -0.129 ± 0.13
ACCCAGCAAUAUUACGAUCC | -1.96 ± 0.079 | -1.17 ± 0.12
UUAUAGCAAUAUUACGACCA | -0.882 ± 0.2 | -0.384 ± 0.21
CAAUAGCAAUAUUACGUUAU | -4.87 ± 0.34 | -1.57 ± 0.18
AUGCAGCAAUAUUACGACAU | -0.23 ± 0.012 | 0.215 ± 0.032
GUGCAGCAAUAUUACGCGUC | -3.39 ± 0.3 | -1.4 ± 0.21
AGUGAGCAAUAUUACGUGCG | -3.31 ± 0.33 | -2.08 ± 0.37
UGAUAGCAAUAUUACGGCCU | -0.718 ± 0.097 | -0.609 ± 0.15
UACUAGCAAUAUUACGCAUG | -1.72 ± 0.099 | -0.591 ± 0.12
GCAUAGCAAUAUUACGAACU | -1.11 ± 0.084 | -0.315 ± 0.11
AUGUAGCAAUAUUACGAUCG | -2.2 ± 0.15 | -1.12 ± 0.2
UGUAAGCAAUAUUACGGGGG | -3.46 ± 0.22 | -1.88 ± 0.21
GCAUAGCAAUAUUACGGUCA | -0.966 ± 0.09 | -0.953 ± 0.096
ACAUAGCAAUAUUACGACUA | -0.666 ± 0.11 | -0.473 ± 0.1
UGGCAGCAAUAUUACGCUAG | -1.41 ± 0.077 | -0.514 ± 0.11
ACACAGCAAUAUUACGAUCA | -1.39 ± 0.084 | -0.858 ± 0.095
GAAAAGCAAUAUUACGGAAA | -2.88 ± 0.27 | -1.55 ± 0.16
AGAAAGCAAUAUUACGGUAU | -2.66 ± 0.14 | -0.578 ± 0.12

Source: the supplement of paper PMC7877785
